Sequences and labels used below:
T1: EsCas13d, nuclease-dead (Eubacterium siraeum, UniProt B0MS50, R295A;H300A;R849A;H854A)
T1 sequence: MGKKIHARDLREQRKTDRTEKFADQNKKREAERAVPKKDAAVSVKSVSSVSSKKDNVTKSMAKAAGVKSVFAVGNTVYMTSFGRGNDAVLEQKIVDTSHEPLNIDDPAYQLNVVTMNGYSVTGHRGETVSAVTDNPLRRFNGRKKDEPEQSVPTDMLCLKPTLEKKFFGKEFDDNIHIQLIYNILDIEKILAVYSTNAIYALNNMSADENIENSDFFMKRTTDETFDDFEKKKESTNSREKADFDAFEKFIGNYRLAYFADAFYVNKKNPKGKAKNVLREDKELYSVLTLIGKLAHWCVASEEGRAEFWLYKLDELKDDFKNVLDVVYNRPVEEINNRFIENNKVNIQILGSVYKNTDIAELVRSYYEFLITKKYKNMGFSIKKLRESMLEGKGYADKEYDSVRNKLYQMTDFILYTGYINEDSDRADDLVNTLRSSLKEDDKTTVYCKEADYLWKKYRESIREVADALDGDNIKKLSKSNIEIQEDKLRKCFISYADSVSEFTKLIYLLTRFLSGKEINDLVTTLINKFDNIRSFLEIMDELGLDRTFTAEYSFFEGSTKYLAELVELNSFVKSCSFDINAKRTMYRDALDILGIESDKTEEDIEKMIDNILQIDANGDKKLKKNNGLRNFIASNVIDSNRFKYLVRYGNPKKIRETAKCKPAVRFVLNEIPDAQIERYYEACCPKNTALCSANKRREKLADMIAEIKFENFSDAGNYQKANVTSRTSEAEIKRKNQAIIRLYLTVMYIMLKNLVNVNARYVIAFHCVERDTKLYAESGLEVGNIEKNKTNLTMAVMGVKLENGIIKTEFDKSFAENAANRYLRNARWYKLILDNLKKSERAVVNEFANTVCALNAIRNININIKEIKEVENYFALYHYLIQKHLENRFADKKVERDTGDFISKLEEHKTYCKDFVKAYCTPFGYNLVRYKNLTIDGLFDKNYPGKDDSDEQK

B1: target 1 insG 3' of 19,insU 3' of 13 (mixed)
RNA 1: CACCCGUGCAAAAAUGCAGGGGUCUAAAACUGAGCGGAUAACCUCUCUAUGG
RNA 2: GGGAAUGGAUCCACAUCUACGAAUUCGUACCAUGAGAGAGUGUUAUCCGCUCACCGAGAUCGGAAGAGCACACGU
B2: target 1 insG 3' of 16,insG 3' of 4 (mixed)
RNA 1: B1 RNA 1
RNA 2: GGGAAUGGAUCCACAUCUACGAAUUCGUACCAUAGAGGAGGUUAUCCGCGUCACCGAGAUCGGAAGAGCACACGU
B3: target 3 insA 3' of 14,insU 3' of 3 (mixed)
RNA 1: CACCCGUGCAAAAUUGCAGGGGUCUAAAACGACCUGAAUAUUUCAGAUCAAA
RNA 2: GGGAAUGGAUCCACAUCUACGAAUUCGUUUUUGAUCUGAAAAUAUUCAGGUUCUGCAGAUCGGAAGAGCACACGU
B4: target 3 insC 3' of 10,insC 3' of 3 (mixed)
RNA 1: B3 RNA 1
RNA 2: B3 RNA 2 with A42U, U43C, U51C
B5: target 3 insA 3' of 4,insA 3' of 4 (mixed)
RNA 1: B3 RNA 1
RNA 2: B3 RNA 2 with A42U, U43A, A44U, U46C, C47A, A48G, G49A, G50A, U51G
B6: target 3 insU 3' of 22,insU 3' of 16 (mixed)
RNA 1: B3 RNA 1
RNA 2: GGGAAUGGAUCCACAUCUACGAAUUCGUUUUUUGAUCUUGAAAUAUUCAGGUCUGCAGAUCGGAAGAGCACACGU
B7: target 3 C1A,A5C (mixed)
RNA 1: B3 RNA 1
RNA 2: GGGAAUGGAUCCACAUCUACGAAUUCGUUUUUGAUCUGAAAUAUUCCGGUAUGCAGAUCGGAAGAGCACACGU
B8: target 3 insC 3' of 22,insG 3' of 6 (mixed)
RNA 1: B3 RNA 1
RNA 2: B6 RNA 2 with U31C, U39G, G40A, A43U, U44A, A45U, U47C, C48G
B9: target 3 G3U,U7A (mixed)
RNA 1: B3 RNA 1
RNA 2: B7 RNA 2 with U45A, C47A, G49U, A51C
B10: target 3 insC 3' of 21,insC 3' of 3 (mixed)
RNA 1: B3 RNA 1
RNA 2: B3 RNA 2 with U32C, G33U, A34G, U35A, C36U, U37C, G38U, A39G, U51C
B11: target 3 insC 3' of 7,insC 3' of 3 (mixed)
RNA 1: B3 RNA 1
RNA 2: B3 RNA 2 with A42U, U43A, A44U, U46C, U51C
B12: target 3 C6G,U7C (mixed)
RNA 1: B3 RNA 1
RNA 2: B7 RNA 2 with U45C, C46G, C47A, A51C
B13: target 3 A9G,U22G (mixed)
RNA 1: B3 RNA 1
RNA 2: B7 RNA 2 with U30G, A43G, C47A, A51C
B14: target 3 insG 3' of 11,insC 3' of 3 (mixed)
RNA 1: B3 RNA 1
RNA 2: B3 RNA 2 with A42G, U51C
B15: target 3 insC 3' of 5,insC 3' of 4 (mixed)
RNA 1: B3 RNA 1
RNA 2: B3 RNA 2 with A42U, U43A, A44U, U46C, C47A, A48C, G50C, U51G
B16: target 3 U2A,C6A (mixed)
RNA 1: B3 RNA 1
RNA 2: B7 RNA 2 with C46A, C47A, U50A, A51C
B17: target 3 G3A,C6A (mixed)
RNA 1: B3 RNA 1
RNA 2: B7 RNA 2 with C46A, C47A, G49A, A51C
B18: target 3 A9G,A18G (mixed)
RNA 1: B3 RNA 1
RNA 2: B7 RNA 2 with A34G, A43G, C47A, A51C
B19: target 3 U2G,U8G (mixed)
RNA 1: B3 RNA 1
RNA 2: B7 RNA 2 with U44G, C47A, U50G, A51C
B20: target 3 insA 3' of 22,insG 3' of 22 (mixed)
RNA 1: B3 RNA 1
RNA 2: B6 RNA 2 with U31A, U32G, G34U, A35G, U36A, C37U, U38C
B21: target 3 insU 3' of 5,insC 3' of 3 (mixed)
RNA 1: B3 RNA 1
RNA 2: B3 RNA 2 with A42U, U43A, A44U, U46C, C47A, A48U, U51C
B22: target 3 C6U,U10C (mixed)
RNA 1: B3 RNA 1
RNA 2: B7 RNA 2 with U42C, C46U, C47A, A51C
B23: target 3 insC 3' of 3,insA 3' of 3 (mixed)
RNA 1: B3 RNA 1
RNA 2: B3 RNA 2 with A42U, U43A, A44U, U46C, C47A, A48G, G50C, U51A
B24: target 3 C1U,A18G (mixed)
RNA 1: B3 RNA 1
RNA 2: B7 RNA 2 with A34G, C47A, A51U
B25: target 3 U2G,C6U (mixed)
RNA 1: B3 RNA 1
RNA 2: B7 RNA 2 with C46U, C47A, U50G, A51C
B26: target 3 G4C,A5U (mixed)
RNA 1: B3 RNA 1
RNA 2: B7 RNA 2 with C47U, G48C, A51C
B27: target 3 U2A,C6U (mixed)
RNA 1: B3 RNA 1
RNA 2: B7 RNA 2 with C46U, C47A, U50A, A51C
B28: target 3 A5G,C6U (mixed)
RNA 1: B3 RNA 1
RNA 2: B7 RNA 2 with C46U, C47G, A51C
B29: target 3 insC 3' of 9,insC 3' of 7 (mixed)
RNA 1: B3 RNA 1
RNA 2: B3 RNA 2 with A42U, U43A, A44C, A48C, G49A, U51G
B30: target 3 insC 3' of 22,insU 3' of 22 (mixed)
RNA 1: B3 RNA 1
RNA 2: B6 RNA 2 with U31C, G34U, A35G, U36A, C37U, U38C

Residue numbers refer to the chain shown, from its start. Names may count otherwise.

This data set deals with T1, EsCas13d, nuclease-dead. Nature of the data set: crRNA (strand 1, pre-loaded); Mg2+; 40 mM Tris-HCl pH 7.5, 150 mM NaCl, 6 mM MgCl2, 1 mM DTT, 0.1% Tween-20, 0.2 mg/ml BSA; 25 C; 10 min per concentration, then washed. The settings on record: tags: His6-TwinStrep-SUMO cleaved; N-terminal SNAP kept (SNAP-Surface 488); label: 3' end held by stalled T7 RNA polymerase.
On to B1, for which the affinity, expressed as Kd, was 51 ± 20 nM.

Molecule B2 displayed a Kd of 13.7 ± 0.7 nM.

Regarding B3, binding was put at a Kd of 90.5 ± 40.5 nM. Take B4: the Kd is roughly 96 nM. B5 gave a Kd of 21.1 ± 3.3 nM. As for B6, the figure is 58 ± 9 nM; as for B7, 58.5 ± 10 nM; as for B8, 22.1 ± 2.45 nM.

As for B9, the affinity, expressed as Kd, was 37 ± 4.5 nM. As for B10, the figure is 80 ± 30.5 nM; as for B11, 97 ± 33 nM. In turn, B12 came in with a Kd of 60.5 ± 5 nM.

Molecule B13 showed a Kd of 69.5 ± 16.5 nM.

With B14, binding was put at a Kd of 76 ± 21.5 nM. As for B15, the figure is 11.6 ± 0.65 nM. The value for B16 was 15.6 ± 1.9 nM; that for B17 was 51.5 ± 5.5 nM; that for B18 was 26.4 ± 2.95 nM.

For B19, the Kd was 47 ± 14.5 nM. For B20, the Kd turned out to be 48 ± 7 nM.

The molecule B21 registered a Kd of 10.9 ± 1.1 nM. B22 returned an equilibrium dissociation constant (Kd) of 88 ± 11.5 nM. The molecule B23 had a Kd of 9.35 ± 1.15 nM. As for B24, the figure is 43 ± 7 nM. As for B25, the figure is 2.4 ± 0.255 nM; as for B26, 42.5 ± 10 nM; as for B27, 4.55 ± 0.43 nM. The value for B28 was 11.5 ± 1.3 nM; that for B29 was 113 ± 50.5 nM. As to B30, the equilibrium dissociation constant (Kd) amounted to 19.1 ± 3.15 nM.

In general, Kd refers to the concentration at which binding is half-saturated.

The record behind these values is article PMC10786891, “Massively parallel profiling of RNA-targeting CRISPR-Cas13d”.
